Experimental data published in US20200283478A1 (Genentech, published 2020).
Numbered stars: 1 amine (or outer) side, 2 acyl side, 3 side chain; on linkers, the order of the positions; unused ones are H or OH. Bridge positions count the residues as written; N and C are the ends. Square brackets hold non-standard residues; d marks the D form. NH(CH2)9CO = O=C(CCCCCCCCCN[*:1])[*:2]; NH(CH2)8CO = O=C(CCCCCCCCN[*:1])[*:2]; Aun = NCCCCCCCCCCC(=O)O; Aoc = NCCCCCCCC(=O)O; Ava = NCCCCC(=O)O

B1: Compound 104 (Ac-CRLPWNlQRIGLPC-NH2) (peptide)
peptide: Ac-CRLPWN[dL]QRIGLPC-NH2
modifications: disulfide 1-14
SMILES: CC[C@H](C)[C@@H]1NC(=O)[C@H](CCCNC(=N)N)NC(=O)[C@H](CCC(N)=O)NC(=O)[C@@H](CC(C)C)NC(=O)[C@H](CC(N)=O)NC(=O)[C@H](Cc2c[nH]c3ccccc23)NC(=O)[C@@H]2CCCN2C(=O)[C@H](CC(C)C)NC(=O)[C@H](CCCNC(=N)N)NC(=O)[C@@H](NC(C)=O)CSSC[C@@H](C(N)=O)NC(=O)[C@@H]2CCCN2C(=O)[C@H](CC(C)C)NC(=O)CNC1=O
B2: Compound 103 (Ac-CRLPWNLqRIGLPC-NH2) (peptide)
peptide: Ac-CRLPWNL[dQ]RIGLPC-NH2
modifications: disulfide 1-14
SMILES: CC[C@H](C)[C@@H]1NC(=O)[C@H](CCCNC(=N)N)NC(=O)[C@@H](CCC(N)=O)NC(=O)[C@H](CC(C)C)NC(=O)[C@H](CC(N)=O)NC(=O)[C@H](Cc2c[nH]c3ccccc23)NC(=O)[C@@H]2CCCN2C(=O)[C@H](CC(C)C)NC(=O)[C@H](CCCNC(=N)N)NC(=O)[C@@H](NC(C)=O)CSSC[C@@H](C(N)=O)NC(=O)[C@@H]2CCCN2C(=O)[C@H](CC(C)C)NC(=O)CNC1=O
B3: Compound 85 (Ac-CRLPWNLQR-(Ano)-C-NH2) (peptide)
peptide: Ac-CRLPWNLQR[NH(CH2)8CO]C-NH2
modifications: disulfide 1-11
SMILES: CC(=O)N[C@H]1CSSC[C@@H](C(N)=O)NC(=O)CCCCCCCCNC(=O)[C@H](CCCNC(=N)N)NC(=O)[C@H](CCC(N)=O)NC(=O)[C@H](CC(C)C)NC(=O)[C@H](CC(N)=O)NC(=O)[C@H](Cc2c[nH]c3ccccc23)NC(=O)[C@@H]2CCCN2C(=O)[C@H](CC(C)C)NC(=O)[C@H](CCCNC(=N)N)NC1=O
B4: Compound 101 (Ac-CRLPWNLQRiGLPC-NH2) (peptide)
peptide: Ac-CRLPWNLQR[dI]GLPC-NH2
modifications: disulfide 1-14
SMILES: CC[C@@H](C)[C@H]1NC(=O)[C@H](CCCNC(=N)N)NC(=O)[C@H](CCC(N)=O)NC(=O)[C@H](CC(C)C)NC(=O)[C@H](CC(N)=O)NC(=O)[C@H](Cc2c[nH]c3ccccc23)NC(=O)[C@@H]2CCCN2C(=O)[C@H](CC(C)C)NC(=O)[C@H](CCCNC(=N)N)NC(=O)[C@@H](NC(C)=O)CSSC[C@@H](C(N)=O)NC(=O)[C@@H]2CCCN2C(=O)[C@H](CC(C)C)NC(=O)CNC1=O
B5: Compound 102 (Ac-CRLPWNLQrIGLPC-NH2) (peptide)
peptide: Ac-CRLPWNLQ[dR]IGLPC-NH2
modifications: disulfide 1-14
SMILES: CC[C@H](C)[C@@H]1NC(=O)[C@@H](CCCNC(=N)N)NC(=O)[C@H](CCC(N)=O)NC(=O)[C@H](CC(C)C)NC(=O)[C@H](CC(N)=O)NC(=O)[C@H](Cc2c[nH]c3ccccc23)NC(=O)[C@@H]2CCCN2C(=O)[C@H](CC(C)C)NC(=O)[C@H](CCCNC(=N)N)NC(=O)[C@@H](NC(C)=O)CSSC[C@@H](C(N)=O)NC(=O)[C@@H]2CCCN2C(=O)[C@H](CC(C)C)NC(=O)CNC1=O
B6: Compound 106 (Ac-CRLPwNLQRIGLPC-NH2) (peptide)
peptide: Ac-CRLP[dW]NLQRIGLPC-NH2
modifications: disulfide 1-14
SMILES: CC[C@H](C)[C@@H]1NC(=O)[C@H](CCCNC(=N)N)NC(=O)[C@H](CCC(N)=O)NC(=O)[C@H](CC(C)C)NC(=O)[C@H](CC(N)=O)NC(=O)[C@@H](Cc2c[nH]c3ccccc23)NC(=O)[C@@H]2CCCN2C(=O)[C@H](CC(C)C)NC(=O)[C@H](CCCNC(=N)N)NC(=O)[C@@H](NC(C)=O)CSSC[C@@H](C(N)=O)NC(=O)[C@@H]2CCCN2C(=O)[C@H](CC(C)C)NC(=O)CNC1=O
B7: Compound 86 (Ac-CRLPWNLQR-(Aoc)-C-NH2) (peptide)
peptide: Ac-CRLPWNLQR[Aoc]C-NH2
modifications: disulfide 1-11
SMILES: CC(=O)N[C@H]1CSSC[C@@H](C(N)=O)NC(=O)CCCCCCCNC(=O)[C@H](CCCNC(=N)N)NC(=O)[C@H](CCC(N)=O)NC(=O)[C@H](CC(C)C)NC(=O)[C@H](CC(N)=O)NC(=O)[C@H](Cc2c[nH]c3ccccc23)NC(=O)[C@@H]2CCCN2C(=O)[C@H](CC(C)C)NC(=O)[C@H](CCCNC(=N)N)NC1=O
B8: Compound 105 (Ac-CRLPWnLQRIGLPC-NH2) (peptide)
peptide: Ac-CRLPW[dN]LQRIGLPC-NH2
modifications: disulfide 1-14
SMILES: CC[C@H](C)[C@@H]1NC(=O)[C@H](CCCNC(=N)N)NC(=O)[C@H](CCC(N)=O)NC(=O)[C@H](CC(C)C)NC(=O)[C@@H](CC(N)=O)NC(=O)[C@H](Cc2c[nH]c3ccccc23)NC(=O)[C@@H]2CCCN2C(=O)[C@H](CC(C)C)NC(=O)[C@H](CCCNC(=N)N)NC(=O)[C@@H](NC(C)=O)CSSC[C@@H](C(N)=O)NC(=O)[C@@H]2CCCN2C(=O)[C@H](CC(C)C)NC(=O)CNC1=O
B9: Compound 115 (Ac-CRLPWNLQRI-(Ape)-C-NH2) (peptide)
peptide: Ac-CRLPWNLQRI[Ava]C-NH2
modifications: disulfide 1-12
SMILES: CC[C@H](C)[C@@H]1NC(=O)[C@H](CCCNC(=N)N)NC(=O)[C@H](CCC(N)=O)NC(=O)[C@H](CC(C)C)NC(=O)[C@H](CC(N)=O)NC(=O)[C@H](Cc2c[nH]c3ccccc23)NC(=O)[C@@H]2CCCN2C(=O)[C@H](CC(C)C)NC(=O)[C@H](CCCNC(=N)N)NC(=O)[C@@H](NC(C)=O)CSSC[C@@H](C(N)=O)NC(=O)CCCCNC1=O
B10: Compound 83 (Ac-CRLPWNLQR-(Aun)-C-NH2) (peptide)
peptide: Ac-CRLPWNLQR[Aun]C-NH2
modifications: disulfide 1-11
SMILES: CC(=O)N[C@H]1CSSC[C@@H](C(N)=O)NC(=O)CCCCCCCCCCNC(=O)[C@H](CCCNC(=N)N)NC(=O)[C@H](CCC(N)=O)NC(=O)[C@H](CC(C)C)NC(=O)[C@H](CC(N)=O)NC(=O)[C@H](Cc2c[nH]c3ccccc23)NC(=O)[C@@H]2CCCN2C(=O)[C@H](CC(C)C)NC(=O)[C@H](CCCNC(=N)N)NC1=O
B11: Compound 84 (Ac-CRLPWNLQR-(Ade)-C-NH2) (peptide)
peptide: Ac-CRLPWNLQR[NH(CH2)9CO]C-NH2
modifications: disulfide 1-11
SMILES: CC(=O)N[C@H]1CSSC[C@@H](C(N)=O)NC(=O)CCCCCCCCCNC(=O)[C@H](CCCNC(=N)N)NC(=O)[C@H](CCC(N)=O)NC(=O)[C@H](CC(C)C)NC(=O)[C@H](CC(N)=O)NC(=O)[C@H](Cc2c[nH]c3ccccc23)NC(=O)[C@@H]2CCCN2C(=O)[C@H](CC(C)C)NC(=O)[C@H](CCCNC(=N)N)NC1=O
B12: Compound 107 (Ac-CRLpWNLQRIGLPC-NH2) (peptide)
peptide: Ac-CRL[dP]WNLQRIGLPC-NH2
modifications: disulfide 1-14
SMILES: CC[C@H](C)[C@@H]1NC(=O)[C@H](CCCNC(=N)N)NC(=O)[C@H](CCC(N)=O)NC(=O)[C@H](CC(C)C)NC(=O)[C@H](CC(N)=O)NC(=O)[C@H](Cc2c[nH]c3ccccc23)NC(=O)[C@H]2CCCN2C(=O)[C@H](CC(C)C)NC(=O)[C@H](CCCNC(=N)N)NC(=O)[C@@H](NC(C)=O)CSSC[C@@H](C(N)=O)NC(=O)[C@@H]2CCCN2C(=O)[C@H](CC(C)C)NC(=O)CNC1=O

biological target: T1, His-tagged, full-length PCSK9 (human, UniProt Q8NBP7 31-692); assay: TR-FRET competition (PCSK9/EGF(A) assay); competitor EGF(A)-Fc;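 further: proximity signal from anti-His APC on PCSK9 paired with anti-Fc europium on the Fc ligand, read as normalized TR-FRET ratio across compound dilutions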
T1 construct: secreted PCSK9 is autocatalytically cleaved into prodomain and catalytic domain + CRD (from S153), which stay associated; also called His-PCSK9; proprotein convertase subtilisin/kexin type 9; not shown: His tag
T1 sequence (Q8NBP7 31-692 limits assumed): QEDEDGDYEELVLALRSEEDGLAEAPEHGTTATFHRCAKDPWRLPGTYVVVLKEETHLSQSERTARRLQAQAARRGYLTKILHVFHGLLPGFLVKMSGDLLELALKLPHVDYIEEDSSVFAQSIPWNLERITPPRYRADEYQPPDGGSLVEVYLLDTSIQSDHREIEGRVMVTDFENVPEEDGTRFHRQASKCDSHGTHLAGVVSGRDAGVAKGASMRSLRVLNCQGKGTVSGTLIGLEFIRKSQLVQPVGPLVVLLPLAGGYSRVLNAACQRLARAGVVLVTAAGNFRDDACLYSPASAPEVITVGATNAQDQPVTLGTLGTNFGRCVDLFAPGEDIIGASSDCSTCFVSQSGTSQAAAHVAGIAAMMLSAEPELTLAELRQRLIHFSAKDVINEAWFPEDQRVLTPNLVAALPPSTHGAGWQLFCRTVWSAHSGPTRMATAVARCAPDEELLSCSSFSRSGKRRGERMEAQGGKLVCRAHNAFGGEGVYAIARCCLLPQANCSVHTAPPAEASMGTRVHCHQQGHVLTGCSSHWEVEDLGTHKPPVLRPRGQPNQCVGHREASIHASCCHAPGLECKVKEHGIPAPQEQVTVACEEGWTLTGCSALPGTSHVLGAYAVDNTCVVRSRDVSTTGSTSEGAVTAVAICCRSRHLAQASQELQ

IC50, > 50 µM:
B1
B2
B3
B4
B5
B6
B7
B8
B9
B10
B11
B12
